Changes are numbered by the printed parent chain. Like-named read-outs stand apart in the source and are kept apart here.
Columns and labels:
[1] = biological target: Env (gp120) of HIV-1 strain AC10.0.29 (HIV-1)
[2] = biological target: Env (gp120) of HIV-1 strain CAP210.2.00.E8 (HIV-1)
[3] = biological target: Env (gp120) of HIV-1 strain CAP45.2.00.G3 (HIV-1)
[4] = biological target: Env (gp120) of HIV-1 strain Du172.17 (HIV-1)
[5] = biological target: Env (gp120) of HIV-1 strain SC422661.8 (HIV-1)
[6] = biological target: Env (gp120) of HIV-1 strain TRO.11 (HIV-1)
[7] = biological target: HIV-1 Env of strain AC10.0.29 (HIV-1)
[8] = biological target: HIV-1 Env of strain CAP210.2.00.E8 (HIV-1)
[9] = biological target: HIV-1 Env of strain CAP45.2.00.G3 (HIV-1)
[10] = biological target: HIV-1 Env of strain Du172.17 (HIV-1)
[11] = biological target: HIV-1 Env of strain SC422661.8 (HIV-1)
[12] = biological target: HIV-1 Env of strain TRO.11 (HIV-1)
[13] = biological target: Env (gp120) of HIV-1 strain 3016.v5.c45 (HIV-1)
[14] = biological target: Env (gp120) of HIV-1 strain C2101.c01 (HIV-1)
[15] = biological target: HIV-1 Env of strain AC10.0.29 (HIV-1); remark: listed apart in the source
[16] = biological target: HIV-1 Env of strain CAP45.2.00.G3 (HIV-1); remark: listed apart in the source
[17] = biological target: HIV-1 Env of strain QH0692.42 (HIV-1)
[18] = biological target: HIV-1 Env of strain SC422661.8 (HIV-1); remark: listed apart in the source
[19] = biological target: HIV-1 Env of strain T257-31 (HIV-1)
[20] = biological target: HIV-1 Env of strain TRO.11 (HIV-1); remark: listed apart in the source
[21] = biological target: HIV-1 Env of strain ZM214M.PL15.11 (HIV-1)
[22] = biological target: Env (gp120) of HIV-1 strain AC10.0.29 (HIV-1); remark: listed apart in the source
[23] = biological target: Env (gp120) of HIV-1 strain CAP45.2.00.G3 (HIV-1); remark: listed apart in the source
[24] = biological target: Env (gp120) of HIV-1 strain QH0692.42 (HIV-1)
[25] = biological target: Env (gp120) of HIV-1 strain SC422661.8 (HIV-1); remark: listed apart in the source
[26] = biological target: Env (gp120) of HIV-1 strain T257-31 (HIV-1)
[27] = biological target: Env (gp120) of HIV-1 strain TRO.11 (HIV-1); remark: listed apart in the source
[28] = biological target: Env (gp120) of HIV-1 strain ZM214M.PL15 (HIV-1)

NIH45-46 G54M IgG (antibody)
neutralization IC50 [1]: 1.5 µg/mL | neutralization IC50 [2]: > 50 µg/mL | neutralization IC50 [3]: > 50 µg/mL | neutralization IC50 [4]: > 50 µg/mL | neutralization IC50 [5]: 0.06 µg/mL | neutralization IC50 [6]: 0.3 µg/mL

12A12 Y54W IgG (antibody)
In vitro neutralization IC50 [7]: 0.5 µg/mL | In vitro neutralization IC50 [8]: > 50 µg/mL | In vitro neutralization IC50 [9]: 0.2 µg/mL | In vitro neutralization IC50 [10]: 0.1 µg/mL | In vitro neutralization IC50 [11]: 0.2 µg/mL | In vitro neutralization IC50 [12]: 0.2 µg/mL

3BNC117 T54W IgG (antibody)
In vitro neutralization IC50 [7]: 2.8 µg/mL | In vitro neutralization IC50 [8]: 2.8 µg/mL | In vitro neutralization IC50 [9]: 23 µg/mL | In vitro neutralization IC50 [10]: 0.9 µg/mL | In vitro neutralization IC50 [11]: 0.07 µg/mL | In vitro neutralization IC50 [12]: 0.6 µg/mL

VRC01 (antibody)
neutralization IC50 [13]: 0.16 µg/mL | neutralization IC50 [14]: 0.36 µg/mL

VRC01 heavy chain paired with NIH45-46 light chain, IgG (antibody)
In vitro neutralization IC50 [15]: 4.5 µg/mL | In vitro neutralization IC50 [16]: > 50 µg/mL | In vitro neutralization IC50 [17]: 1.2 µg/mL | In vitro neutralization IC50 [18]: 0.4 µg/mL | In vitro neutralization IC50 [19]: 15 µg/mL | In vitro neutralization IC50 [20]: 24 µg/mL | In vitro neutralization IC50 [21]: 1.8 µg/mL

3BNC55 T54W IgG (antibody)
In vitro neutralization IC50 [7]: > 50 µg/mL | In vitro neutralization IC50 [8]: > 50 µg/mL | In vitro neutralization IC50 [9]: > 50 µg/mL | In vitro neutralization IC50 [10]: > 50 µg/mL | In vitro neutralization IC50 [11]: 0.6 µg/mL | In vitro neutralization IC50 [12]: > 50 µg/mL

3BNC60 T54W IgG (antibody)
In vitro neutralization IC50 [7]: 3.1 µg/mL | In vitro neutralization IC50 [8]: 5 µg/mL | In vitro neutralization IC50 [9]: 19 µg/mL | In vitro neutralization IC50 [10]: 0.04 µg/mL | In vitro neutralization IC50 [11]: 0.1 µg/mL | In vitro neutralization IC50 [12]: 0.06 µg/mL

NIH45-46 Δ99a-99d (antibody)
neutralization IC50 [22]: 13 µg/mL | neutralization IC50 [23]: > 50 µg/mL | neutralization IC50 [24]: 3.7 µg/mL | neutralization IC50 [25]: 1.4 µg/mL | neutralization IC50 [26]: 7 µg/mL | neutralization IC50 [27]: > 50 µg/mL | neutralization IC50 [28]: 2.2 µg/mL

VRC01 IgG (antibody)
In vitro neutralization IC50 [15]: 0.8 µg/mL | In vitro neutralization IC50 [16]: 1.8 µg/mL | In vitro neutralization IC50 [17]: 0.7 µg/mL | In vitro neutralization IC50 [18]: 0.2 µg/mL | In vitro neutralization IC50 [20]: 0.5 µg/mL | In vitro neutralization IC50 [21]: 0.8 µg/mL

NIH45-46 Y99dA (antibody)
neutralization IC50 [22]: 4.4 µg/mL | neutralization IC50 [23]: > 50 µg/mL | neutralization IC50 [24]: 2.1 µg/mL | neutralization IC50 [25]: 0.08 µg/mL | neutralization IC50 [26]: 2.4 µg/mL | neutralization IC50 [27]: > 50 µg/mL | neutralization IC50 [28]: 1.1 µg/mL

NIH45-46 G54I IgG (antibody)
neutralization IC50 [1]: 8.6 µg/mL | neutralization IC50 [2]: > 50 µg/mL | neutralization IC50 [3]: > 50 µg/mL | neutralization IC50 [4]: > 50 µg/mL | neutralization IC50 [5]: 0.1 µg/mL | neutralization IC50 [6]: 10 µg/mL

NIH45-46 heavy chain paired with VRC01 light chain, IgG (antibody)
In vitro neutralization IC50 [15]: 1 µg/mL | In vitro neutralization IC50 [16]: 2.1 µg/mL | In vitro neutralization IC50 [17]: 0.9 µg/mL | In vitro neutralization IC50 [18]: 0.2 µg/mL | In vitro neutralization IC50 [19]: 0.6 µg/mL | In vitro neutralization IC50 [20]: 0.3 µg/mL | In vitro neutralization IC50 [21]: 0.6 µg/mL

NIH45-46 G54H IgG (antibody)
neutralization IC50 [1]: 0.6 µg/mL | neutralization IC50 [2]: > 50 µg/mL | neutralization IC50 [3]: > 50 µg/mL | neutralization IC50 [4]: > 50 µg/mL | neutralization IC50 [5]: 0.09 µg/mL | neutralization IC50 [6]: 0.2 µg/mL

NIH45-46 G54L IgG (antibody)
neutralization IC50 [1]: 1.7 µg/mL | neutralization IC50 [2]: > 50 µg/mL | neutralization IC50 [3]: > 50 µg/mL | neutralization IC50 [4]: > 50 µg/mL | neutralization IC50 [5]: 0.1 µg/mL | neutralization IC50 [6]: 0.3 µg/mL

B1: 3BNC55 IgG (wild type) (antibody, V domains shown)
VH: QVQLVQSGTAVKRPGASVRVSCQASGYTFTDYFIYWWRQAPGQGLEWLGWINPLTSQPSYPSRFQGRLTLTRDTFDEMLYMDLRGLRSDDTGIYFCARRHSDYCDFDIWGSGTQIIVSS
VL: DIQMTQSPSSLSASVGDKVTITCQTSAGYLNWYQQRRGRAPKLLMYDGSRLVTGVPSRFSGRRWGTQYNLTIGSLQPEDIATYYCQVYEFFGPGTRLDLKS
In vitro neutralization IC50 [7]: > 50 µg/mL | In vitro neutralization IC50 [8]: > 50 µg/mL | In vitro neutralization IC50 [9]: > 50 µg/mL | In vitro neutralization IC50 [10]: 2 µg/mL | In vitro neutralization IC50 [11]: 0.3 µg/mL | In vitro neutralization IC50 [12]: 7.6 µg/mL

B2: 3BNC60 IgG (wild type) (antibody)
heavy: QVHLSQSGAAVTKPGASVRVSCEASGYKISDHFIHWWRQAPGQGLQWVGWINPKTGQPNNPRQFQGRVSLTRQASWDFDTYSFYMDLKAVRSDDTAIYFCARQRSDFWDFDVWGSGTQVTVSS
light: DIQMTQSPSSLSARVGDTVTITCQANGYLNWYQQRRGKAPKLLIYDGSKLERGVPARFSGRRWGQEYNLTINNLQPEDVATYFCQVYEFIVPGTRLDLKRTVA
In vitro neutralization IC50 [7]: 13 µg/mL | In vitro neutralization IC50 [8]: 4.7 µg/mL | In vitro neutralization IC50 [9]: 10 µg/mL | In vitro neutralization IC50 [10]: 0.05 µg/mL | In vitro neutralization IC50 [11]: 0.1 µg/mL | In vitro neutralization IC50 [12]: 0.07 µg/mL

B3: 3BNC117 IgG (wild type) (antibody)
heavy: B2 heavy with H3Q, S5L, K28N, S30R, H32Y, Q73H, Y81F, V90L, I97V, F107Y
light: B2 light with R14S, A56S, V79I, I90V
In vitro neutralization IC50 [7]: 6.5 µg/mL | In vitro neutralization IC50 [8]: 11 µg/mL | In vitro neutralization IC50 [9]: 16 µg/mL | In vitro neutralization IC50 [10]: 0.04 µg/mL | In vitro neutralization IC50 [11]: 0.07 µg/mL | In vitro neutralization IC50 [12]: 0.6 µg/mL

B4: 12A12 IgG (wild type) (antibody, V domains shown)
VH: SQHLVQSGTQVKKPGASVRISCQASGYSFTDYVLHWWRQAPGQGLEWMGWIKPVYGARNYARRFQGRINFDRDIYREIAFMDLSGLRSDDTALYFCARDGSGDDTSWHLDPWGQGTLVIVSA
VL: DIQMTQSPSSLSASVGDRVTITCQAGQGIGSSLQWYQQKPGKAPKLLVHGASNLHRGVPSRFSGSGFHTTFSLTISGLQRDDFATYFCAVLEFFGPGTKVEIKR
In vitro neutralization IC50 [7]: 0.6 µg/mL | In vitro neutralization IC50 [8]: > 50 µg/mL | In vitro neutralization IC50 [9]: 0.4 µg/mL | In vitro neutralization IC50 [10]: 0.2 µg/mL | In vitro neutralization IC50 [11]: 0.2 µg/mL | In vitro neutralization IC50 [12]: 0.3 µg/mL
